Columns and labels:
[1] = molecular target: GST-tagged H. sapiens hinT H112N (human) (UniProt P49773); test: BLI; GST-hinT (90 nM) immobilised on anti-GST biosensors; sucA-AMP 500 to 7.81 nM, unmodified sucA at 500 nM; 10 mM Tris pH 8, 150 mM NaCl, 0.1% Triton X-100; KD from steady-state responses, one site
[2] = molecular target: GST-tagged E. coli hinT H101N (E. coli) (UniProt P0ACE7); test: as above
[3] = molecular target: AMPylated GlnA (glutamine synthetase), recombinant (E. coli) (UniProt P0A9C5); test: cryo-EM structure; GlnA (4.68 mg/ml) mixed with hinT (3.29 mg/ml), 1:3 molar ratio of monomers; 10 mM Tris pH 8, 150 mM NaCl, 2 mM DTT

Sequence of GST-tagged H. sapiens hinT H112N (human) (P49773 whole entry H112N): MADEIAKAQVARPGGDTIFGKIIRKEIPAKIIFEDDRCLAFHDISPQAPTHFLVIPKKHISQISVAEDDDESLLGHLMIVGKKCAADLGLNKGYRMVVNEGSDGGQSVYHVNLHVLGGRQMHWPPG

| Substance | Kd [1] | Kd [2] | stoichiometry N (hinT dimers per GlnA dodecamer) [3] |
| --- | --- | --- | --- |
| AMPylated sucA (from UniProt P0AFG3 1-933) (enzyme) | 10 nM | 27 nM | – |
| E. coli hinT H101N (untagged) (from UniProt P0ACE7 1-119) (enzyme) | – | – | < 6 |

Source: publication PMC12375108
